This data set concerns COc1cc2c(c(OC)c1OC)-c1ccc(OC)c(=O)cc1[C@@H](NC(C)=O)CC2. The data set is described as follows: TP_TRANSPORTER: ATP hydrolysis in reconstituted proteoliposomes. The format is functional, subcellular.

For the substance “ATP-dependent translocase ABCB1 (Homo sapiens)”, the Km – broadly, the concentration of substrate that gives half-maximal velocity – was found to be 45 µM.

(Values after ChEMBL document CHEMBL2074521, “Partial purification and reconstitution of the human multidrug-resistance pump: characterization of the drug-stimulatable ATP hydrolysis” (Proc Natl Acad Sci U S A, 1992).)
